Laboratory results reported in IntAct's records for PubMed 22653727.

Tests used:
clock_mouse Clock [1] = biological target: clock_mouse Clock (UniProt O08785)
clock_mouse Clock [2] = biological target: clock_mouse Clock (UniProt O08785); remark: listed apart in the source
clock_mouse Clock [3] = biological target: clock_mouse Clock (UniProt O08785); remark: listed apart in the source

clock_mouse Clock, sequence (O08785 whole entry): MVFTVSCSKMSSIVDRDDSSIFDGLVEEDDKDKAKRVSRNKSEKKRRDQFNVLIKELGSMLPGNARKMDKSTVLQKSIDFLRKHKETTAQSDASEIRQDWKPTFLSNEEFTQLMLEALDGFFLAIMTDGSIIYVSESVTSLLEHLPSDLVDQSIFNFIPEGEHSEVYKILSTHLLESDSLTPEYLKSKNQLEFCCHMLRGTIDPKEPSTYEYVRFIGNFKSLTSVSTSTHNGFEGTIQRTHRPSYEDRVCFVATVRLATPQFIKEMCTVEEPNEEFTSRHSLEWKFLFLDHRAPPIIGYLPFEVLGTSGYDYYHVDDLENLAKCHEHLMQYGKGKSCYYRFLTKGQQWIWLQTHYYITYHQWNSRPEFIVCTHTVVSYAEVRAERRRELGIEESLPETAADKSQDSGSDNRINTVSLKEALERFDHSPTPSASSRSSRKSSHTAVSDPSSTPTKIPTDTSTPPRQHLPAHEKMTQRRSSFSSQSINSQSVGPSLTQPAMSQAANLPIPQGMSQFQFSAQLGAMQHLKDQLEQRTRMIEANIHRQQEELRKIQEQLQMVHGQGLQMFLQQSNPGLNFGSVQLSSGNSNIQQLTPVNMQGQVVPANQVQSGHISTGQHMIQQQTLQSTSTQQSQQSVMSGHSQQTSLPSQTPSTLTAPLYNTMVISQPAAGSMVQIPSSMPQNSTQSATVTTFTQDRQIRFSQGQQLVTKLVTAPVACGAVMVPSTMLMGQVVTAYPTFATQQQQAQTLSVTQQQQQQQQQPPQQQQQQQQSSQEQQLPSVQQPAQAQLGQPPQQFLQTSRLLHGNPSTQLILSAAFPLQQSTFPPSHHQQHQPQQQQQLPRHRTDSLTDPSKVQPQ
Basic helix-loop-helix ARNT-like protein 1 (Mus musculus), Q9WTL8-4 L150E, sequence (Q9WTL8 other isoform, or with tags, fused parts or gaps L150E): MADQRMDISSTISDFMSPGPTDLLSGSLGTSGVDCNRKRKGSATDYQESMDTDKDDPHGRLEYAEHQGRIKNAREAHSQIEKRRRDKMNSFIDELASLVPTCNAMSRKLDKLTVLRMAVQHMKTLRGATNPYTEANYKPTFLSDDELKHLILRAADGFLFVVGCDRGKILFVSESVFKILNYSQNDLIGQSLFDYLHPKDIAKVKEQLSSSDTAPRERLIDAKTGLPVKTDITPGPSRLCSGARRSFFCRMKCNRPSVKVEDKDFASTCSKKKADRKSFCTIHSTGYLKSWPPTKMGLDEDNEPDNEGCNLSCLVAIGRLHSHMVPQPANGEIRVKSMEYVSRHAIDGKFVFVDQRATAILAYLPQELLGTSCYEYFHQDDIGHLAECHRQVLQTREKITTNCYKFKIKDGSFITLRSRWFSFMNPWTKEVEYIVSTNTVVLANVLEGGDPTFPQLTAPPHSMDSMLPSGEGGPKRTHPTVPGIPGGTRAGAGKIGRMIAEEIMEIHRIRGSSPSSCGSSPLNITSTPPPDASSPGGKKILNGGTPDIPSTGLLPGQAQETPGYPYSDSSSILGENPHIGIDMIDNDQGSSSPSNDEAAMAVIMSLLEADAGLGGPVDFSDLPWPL
Basic helix-loop-helix ARNT-like protein 1 (Mus musculus), Q9WTL8-4 L95E, sequence (Q9WTL8 other isoform, or with tags, fused parts or gaps L95E): as the sequence (Q9WTL8 other isoform, or with tags, fused parts or gaps L150E) above
Basic helix-loop-helix ARNT-like protein 1 (Mus musculus), Q9WTL8-4 F423R;V435R, sequence (Q9WTL8 other isoform, or with tags, fused parts or gaps F423R;V435R): as the sequence (Q9WTL8 other isoform, or with tags, fused parts or gaps L150E) above
Basic helix-loop-helix ARNT-like protein 1 (Mus musculus), Q9WTL8-4 F423R, sequence (Q9WTL8 other isoform, or with tags, fused parts or gaps F423R): as the sequence (Q9WTL8 other isoform, or with tags, fused parts or gaps L150E) above
Basic helix-loop-helix ARNT-like protein 1 (Mus musculus), Q9WTL8-4 I317D, sequence (Q9WTL8 other isoform, or with tags, fused parts or gaps I317D): as the sequence (Q9WTL8 other isoform, or with tags, fused parts or gaps L150E) above
Basic helix-loop-helix ARNT-like protein 1 (Mus musculus), Q9WTL8-4 L95E;L150E;W427A, sequence (Q9WTL8 other isoform, or with tags, fused parts or gaps L95E;L150E;W427A): as the sequence (Q9WTL8 other isoform, or with tags, fused parts or gaps L150E) above
Basic helix-loop-helix ARNT-like protein 1 (Mus musculus), Q9WTL8-4 W427A, sequence (Q9WTL8 other isoform, or with tags, fused parts or gaps W427A): as the sequence (Q9WTL8 other isoform, or with tags, fused parts or gaps L150E) above
Basic helix-loop-helix ARNT-like protein 1 (Mus musculus), Q9WTL8-4 V435R, sequence (Q9WTL8 other isoform, or with tags, fused parts or gaps V435R): as the sequence (Q9WTL8 other isoform, or with tags, fused parts or gaps L150E) above
Basic helix-loop-helix ARNT-like protein 1 (Mus musculus), Q9WTL8-4 L115E, sequence (Q9WTL8 other isoform, or with tags, fused parts or gaps L115E): as the sequence (Q9WTL8 other isoform, or with tags, fused parts or gaps L150E) above

Row | effect of a mutation on the interaction (clock_mouse Clock [1]) | effect of a mutation on the interaction (clock_mouse Clock [2]) | effect of a mutation on the interaction (clock_mouse Clock [3]) | Substance
1 | disrupting interaction strength | – | – | Basic helix-loop-helix ARNT-like protein 1 (Mus musculus), Q9WTL8-4 L115E
2 | with no effect | disrupting interaction strength | – | Basic helix-loop-helix ARNT-like protein 1 (Mus musculus), Q9WTL8-4 V435R
3 | with no effect | decreasing interaction strength | – | Basic helix-loop-helix ARNT-like protein 1 (Mus musculus), Q9WTL8-4 F423R
4 | with no effect | – | decreasing interaction strength | Basic helix-loop-helix ARNT-like protein 1 (Mus musculus), Q9WTL8-4 L150E
5 | disrupting interaction strength | decreasing interaction strength | – | Basic helix-loop-helix ARNT-like protein 1 (Mus musculus), Q9WTL8-4 I317D
6 | decreasing interaction strength | with no effect | – | Basic helix-loop-helix ARNT-like protein 1 (Mus musculus), Q9WTL8-4 W427A
7 | disrupting interaction strength | with no effect | – | Basic helix-loop-helix ARNT-like protein 1 (Mus musculus), Q9WTL8-4 L95E
8 | decreasing interaction strength | disrupting interaction strength | – | Basic helix-loop-helix ARNT-like protein 1 (Mus musculus), Q9WTL8-4 F423R;V435R
9 | disrupting interaction strength | disrupting interaction strength | – | Basic helix-loop-helix ARNT-like protein 1 (Mus musculus), Q9WTL8-4 L95E;L150E;W427A
